22 molecules from patent US20110294748A1 (Janssen / Centocor, published 2011) can be followed below.

Ends that are not written are not given here.

To fix the notation:
B1: PG-peptide fusion of clone 9 (protein G IgG domain with peptide SEQ ID NO: 5 at its C-terminus) (other)
chain: YKLILNGKTLKGETTTEAVDAATAEKVFKQYANDNGVDGEWTYDDATKTFTVTEFTCAVYSLSELDCRD
notes: also called PG-peptide fusion clone 9
B2: PG-peptide fusion of clone 16 (protein G IgG domain with peptide SEQ ID NO: 12 at its C-terminus) (other)
chain: YKLILNGKTLKGETTTEAVDAATAEKVFKQYANDNGVDGEWTYDDATKTFTVTEAGCPSPMPPVDPGFYSAIVQLCRE
notes: also called PG-peptide fusion clone 16
B3: PG-peptide fusion of clone 7 (protein G IgG domain with peptide SEQ ID NO: 3 at its C-terminus) (other)
chain: YKLILNGKTLKGETTTEAVDAATAEKVFKQYANDNGVDGEWTYDDATKTFTVTEPFCYSGGPLPYPCTY
notes: also called PG-peptide fusion clone 7
B4: PG-peptide fusion of clone 8 (protein G IgG domain with peptide SEQ ID NO: 4 at its C-terminus) (other)
chain: YKLILNGKTLKGETTTEAVDAATAEKVFKQYANDNGVDGEWTYDDATKTFTVTEPVCPSFCYDQYVCPT
notes: also called PG-peptide fusion clone 8
B5: PG-peptide fusion of clone 11 (protein G IgG domain with peptide SEQ ID NO: 7 at its C-terminus) (other)
chain: YKLILNGKTLKGETTTEAVDAATAEKVFKQYANDNGVDGEWTYDDATKTFTVTEHTCFYPTLMPPELCFD
notes: also called PG-peptide fusion clone 11
B6: PG-peptide fusion of clone 12 (protein G IgG domain with peptide SEQ ID NO: 8 at its C-terminus) (other)
chain: YKLILNGKTLKGETTTEAVDAATAEKVFKQYANDNGVDGEWTYDDATKTFTVTESNCPPLDMRLTELCVM
notes: also called PG-peptide fusion clone 12
B7: PG-peptide fusion of clone 14 (protein G IgG domain with peptide SEQ ID NO: 10 at its C-terminus) (other)
chain: YKLILNGKTLKGETTTEAVDAATAEKVFKQYANDNGVDGEWTYDDATKTFTVTEVECDTPSITFSPGLEALFWNTCSP
notes: also called PG-peptide fusion clone 14
B8: PG-peptide fusion of clone 6 (protein G IgG domain with peptide SEQ ID NO: 2 at its C-terminus) (other)
chain: YKLILNGKTLKGETTTEAVDAATAEKVFKQYANDNGVDGEWTYDDATKTFTVTEAECEWPWLTLELCQS
notes: also called PG-peptide fusion clone 6
B9: PG-peptide fusion of clone 10 (protein G IgG domain with peptide SEQ ID NO: 6 at its C-terminus) (other)
chain: YKLILNGKTLKGETTTEAVDAATAEKVFKQYANDNGVDGEWTYDDATKTFTVTELSCYDPTLRTLYCHV
notes: also called PG-peptide fusion clone 10
B10: PG-peptide fusion of clone 5 (protein G IgG domain with peptide SEQ ID NO: 1 at its C-terminus) (other)
chain: YKLILNGKTLKGETTTEAVDAATAEKVFKQYANDNGVDGEWTYDDATKTFTVTETGCDFPELCRGCHP
notes: also called PG-peptide fusion clone 5
B11: peptide-Alkaline phosphatase-His6 fusion protein of clone 5 (other)
chain: TGCDFPELCRGCHPTPEMPVLENRAAQGDITTPGGARRLTGDQTAALRDSLSDKPAKNIILLIGDGMGDSEITAARNYAEGAGGFFKGIDALPLTGQYTHYALNKKTGKPDYVTDSAASATAWSTGVKTYNGALGVDIHEKDHPTILEMAKAAGLATGNVSTAELQGATPAALVAHVTSRKCYGPSATSEKCPGNALEKGGKGSITEQLLNARADVTLGGGAKTFAETATAGEWQGKTLREQAQTRGYQLVSDAASLNSVTEANQQKPLLGLFADGNMPVRWLGPKATYHGNIDKPAVTCTPNPQRNDSVPTLAQMTDKAIELLSKNEKGFFLQVEGASIDKQNHAANPCGQIGETVDLDEAVQRALEFAKKEGNTLVIVTADHAHASQIVAPDTKAPGLTQALNTKDGAVMVMSYGNSEEDSQEHTGSQLRIAAYGPHAANVVGLTDQTDLFYTMKAALGLKVPGGSGGGSGGGSGGGSGTPEMPVLENRAAQGDITTPGGARRLTGDQTAALRDSLSDKPAKNIILLIGDGMGDSEITAARNYAEGAGGFFKGIDALPLTGQYTHYALNKKTGKPDYVTDSAASATAWSTGVKTYNGALGVDIHEKDHPTILEMAKAAGLATGNVSTAELQGATPAALVAHVTSRKCYGPSATSEKCPGNALEKGGKGSITEQLLNARADVTLGGGAKTFAETATAGEWQGKTLREQAQTRGYQLVSDAASLNSVTEANQQKPLLGLFADGNMPVRWLGPKATYHGNIDKPAVTCTPNPQRNDSVPTLAQMTDKAIELLSKNEKGFFLQVEGASIDKQNHAANPCGQIGETVDLDEAVQRALEFAKKEGNTLVIVTADHAHASQIVAPDTKAPGLTQALNTKDGAVMVMSYGNSEEDSQEHTGSQLRIAAYGPHAANVVGLTDQTDLFYTMKAALGLKVPGNSHHHHHH
notes: Tested as bacterial culture supernatant; also called peptide-AP fusion clone 5

The first test addresses T1, soluble IGF1R (sIGF1R), extracellular domain of human insulin-like growth factor 1 receptor, carboxy-terminal … (human, UniProt P08069 31-932).
T1 construct: Bought from R&D Systems; GenBank NP-000866 is printed for the whole receptor; also called IFG1R
The test is described as follows: solid phase phage ELISA, phage lysate on coated sIGF1R. How it is done: Total of 384 individual phage lysates from the panning were tested for binding specificity towards sIGF1R in a solid phase phage ELISA. Briefly, 100 μl/well of 5 μg/ml sIGF1R (R&D Systems, Minneapolis, Minn.) was bound to Black Maxisorp Plates (Nunc, Rochester, N.Y.), 25 μl of phage lysate added, and the reaction was detected using anti-M13-HRP antibody (EMD Biosciences, Gibbstown, N.J.) and POD substrate (Roche, Indianapolis, Ind.), and the signal detected using a TEKAN plate reader. […] Positive lysates were defined as clones with a sIGF1R specific signal that was three fold above the background of the negative control. A total of 13 clones with unique peptide sequences were obtained with confirmed binding to the sIGF1R (Table 1). From these 13 clones, 3 (clones 5, 13 and 16) cross-reacted with the insulin receptor.
(An ELISA detects its analyte on a solid surface through an enzyme-linked reagent.)
AGCPSPMPPVDPGFYSAIVQLCRE (peptide, not shown: large carriers, cysteine pairing not given here; also: displayed on phage pIX, Tested as phage lysate) [phage clone 16 (peptide SEQ ID NO: 12 displayed on pIX phage)]: the binding result was “binds”.

In the case of DDIDEFLHQLHNLVNNVH (peptide, not shown: large carriers, Tested as phage lysate) [phage clone 17 (peptide SEQ ID NO: 13 displayed on pIX phage)], the binding result is on record as “binds”. As to FTCAVYSLSELDCRD (peptide, not shown: large carriers, cysteine pairing not given here; also: displayed on phage pIX, Tested as phage lysate) [phage clone 9 (peptide SEQ ID NO: 5 displayed on pIX phage)], the binding result is listed as “binds”. As to HTCFYPTLMPPELCFD (peptide, not shown: large carriers, cysteine pairing not given here; also: displayed on phage pIX, Tested as phage lysate) [phage clone 11 (peptide SEQ ID NO: 7 displayed on pIX phage)], the binding result is reported as “binds”. Regarding TGCDFPELCRGCHP (peptide, not shown: large carriers, cysteine pairing not given here; also: displayed on phage pIX, Tested as phage lysate) [phage clone 5 (peptide SEQ ID NO: 1 displayed on pIX phage)], the binding result is reported as “binds”.

As for PVCPSFCYDQYVCPT (peptide, not shown: large carriers, cysteine pairing not given here; also: displayed on phage pIX, Tested as phage lysate) [phage clone 8 (peptide SEQ ID NO: 4 displayed on pIX phage)], the binding result is reported as “binds”. Consider LSCYDPTLRTLYCHV (peptide, not shown: large carriers, cysteine pairing not given here; also: displayed on phage pIX, Tested as phage lysate) [phage clone 10 (peptide SEQ ID NO: 6 displayed on pIX phage)], for which the binding result was “binds”. PFCYSGGPLPYPCTY (peptide, not shown: large carriers, cysteine pairing not given here; also: displayed on phage pIX, Tested as phage lysate) [phage clone 7 (peptide SEQ ID NO: 3 displayed on pIX phage)]: the binding result is “binds”. On to SNCPPLDMRLTELCVM (peptide, not shown: large carriers, cysteine pairing not given here; also: displayed on phage pIX, Tested as phage lysate) [phage clone 12 (peptide SEQ ID NO: 8 displayed on pIX phage)], for which the binding result was “binds”. For VECDTPSITFSPGLEALFWNTCSP (peptide, not shown: large carriers, cysteine pairing not given here; also: displayed on phage pIX, Tested as phage lysate) [phage clone 14 (peptide SEQ ID NO: 10 displayed on pIX phage)], the binding result was “binds”. In the case of AECEWPWLTLELCQS (peptide, not shown: large carriers, cysteine pairing not given here; also: displayed on phage pIX, Tested as phage lysate) [phage clone 6 (peptide SEQ ID NO: 2 displayed on pIX phage)], the binding result is “binds”.

The target of another test is T1, soluble IGF1R (sIGF1R), extracellular …. The test is described as follows: ELISA, serially diluted PG-peptide fusion on coated sIGF1R, one site binding fit. How it is done:
Relative binding affinities of the PG-peptide fusions for sIGF1R were measured using ELISA. The Kds were determined using GraphPad Prism 4 software with a one site binding equation. 100 μl of 2 μg/ml sIGF1R(R&D Systems, Minneapolis, Minn.) in Dulbecco's Phosphate Buffer Saline (DPBS (−/−)) was coated onto a 96 well Black Maxisorp plates (Nunc, Rochester, N.Y.) overnight at 4° C. The plates were washed with TBST and the wells blocked with 200 μl/well Starting Block T20 (TBS) (Pierce, Rockford, Ill.) for 1 hr, room temperature with 300 rpm shaking. 75 μl/well of purified, serially diluted PG-peptide fusions, starting concentration 40 μM, was added into the wells and incubated for 1 h, room temperature with 300 rpm mixing; the volume was brought up to 100 μl with Starting Block T20. The plates were washed 3× with TBST and then probed with 100 μl/well Peroxidase labeled-Rabbit antibody (1:5000) (Rockland, Gilbertsville, Pa.), washed, and the signal was detected using 100 μl/well POD substrate (Roche, Indianapolis, Ind.). Chemiluminescence was detected using a Molecular Devices M5 plate reader.
B1 showed an EC50 of 3500 nM.

In turn, B2 came in with an EC50 of 8200 nM. B3 gave an EC50 of 1800 nM. In turn, B4 registered an EC50 of 1600 nM. The same measure, in the same setting: as for B5, the figure is 1200 nM; as for B6, 1800 nM. Turning to B7, the EC50 came to 850 nM.

As to B8, the EC50 is 1000 nM. B9: a half-maximal response (EC50) required 4300 nM.

The molecule B10 showed an EC50 of 750 nM.

For a further test the target is unchanged. Put plainly: ELISA, culture supernatant on 2 µg/ml coated sIGF1R, Attophos detection. How it is done:
The binding of purified peptide-AP fusion proteins to sIGF1R was assessed using ELISA against immobilized sIGF1R. Briefly, bacteria transformed with each peptide-AP fusion expression vector were grown overnight and the following day the cultures were clarified by centrifugation at 4,500 rpm, 4° C. The supernatants were collected and 75 μl of each supernatant was assayed for binding to 2 μg/ml sIGF1R immobilized on ELISA plates. The bound peptides were detected using the Attophos Substrate (Roche, Indianapolis, Ind.) following the manufacturer's recommendation and read using a Molecular Devices M5 plate reader.
In the case of B11, the binding result was “binds”.

The term EC50 denotes the concentration at which the effect is half-maximal.
